In publication PMC4551927 (Nucleic Acids Research, 2015):

B1: Mycobacterium tuberculosis VapC30 toxin (natural protein)
chain: MMVIDTSALVAMLSDEPDAERFEAAVEADHIRLMSTASYLETALVIEARFGEPGGRELDLWLHRAAVDLVAVHADQADAARAAYRTYGKGRHRAGLNYGDCFSYGLAKISGQPLLFKGEDFQHTDIATVALP

Key:
[1] = target: B1; assay: crystal structure
crystal structure = target: the molecule itself; assay: crystal structure

Row | Binder | binding result [1] | binding result (crystal structure)
1 | Mycobacterium tuberculosis VapB30 antitoxin (natural protein) MALSIKHPEADRLARALAARTGETLTEAVVTALRERLARETGRARVVPLRDELAAIRHRCAALPVVDNRSAEAILGYDERGLPA | binds | binds
2 | B1 | – | binds
